Test results reported in US20180215801A1.

Molecular target: Activin B (UniProt P09529)
Assay: SPR (Biacore 2000), Fc fusion captured on anti-human Fc chip, ligand injected, 1:1 Langmuir fit

Activin B, sequence (P09529 293-407 limits assumed): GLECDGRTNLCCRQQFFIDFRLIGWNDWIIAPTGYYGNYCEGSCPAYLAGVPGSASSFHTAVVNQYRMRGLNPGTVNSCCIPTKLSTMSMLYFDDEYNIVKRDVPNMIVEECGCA

Kd: 0.8 nM | koff: 0.00042 s⁻¹ | kon: 510000 M⁻¹ s⁻¹
Substance: BMPRII-Fc (BMPRII (1-120) fused to hIgG1-Fc) (from UniProt Q13873 27-120) (Fc fusion)
